# Laboratory results as given in paper PMC9482650, “Quantitative fragmentomics allow affinity mapping of interactomes” (Nature Communications, 2022).
# T1: PARD3B_1, Q8TEW8
# T1 sequence (Q8TEW8 196-299, limits assumed, looked up): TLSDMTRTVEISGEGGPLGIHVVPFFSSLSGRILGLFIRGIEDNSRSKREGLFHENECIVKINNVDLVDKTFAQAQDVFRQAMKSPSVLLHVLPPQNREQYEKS
# T2: GRIP1_2, Q9Y3R0
# T2 sequence (Q9Y3R0 145-248, limits assumed, looked up): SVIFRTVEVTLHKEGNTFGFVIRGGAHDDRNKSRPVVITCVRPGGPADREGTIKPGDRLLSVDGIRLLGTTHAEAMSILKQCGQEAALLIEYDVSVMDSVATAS
# T3: ARHGAP21, Q5T5U3
# T3 sequence (Q5T5U3 45-169, limits assumed, looked up): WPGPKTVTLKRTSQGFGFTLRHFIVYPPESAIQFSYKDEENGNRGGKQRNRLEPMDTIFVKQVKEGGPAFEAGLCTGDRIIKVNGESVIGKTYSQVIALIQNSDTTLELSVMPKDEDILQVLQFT
# T4: DFNB31_3, Q9P202
# T4 sequence (Q9P202 811-907, limits assumed, looked up): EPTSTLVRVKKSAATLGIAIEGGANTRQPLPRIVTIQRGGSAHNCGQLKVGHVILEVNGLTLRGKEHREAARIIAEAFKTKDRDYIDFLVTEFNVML
# T5: LNX2_3, Q8N448
# T5 sequence (Q8N448 463-564, limits assumed, looked up): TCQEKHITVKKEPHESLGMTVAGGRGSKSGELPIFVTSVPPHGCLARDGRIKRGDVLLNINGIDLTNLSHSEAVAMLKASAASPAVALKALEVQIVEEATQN
# T6: ARHGEF11, O15085
# T6 sequence (O15085 42-136, limits assumed, looked up): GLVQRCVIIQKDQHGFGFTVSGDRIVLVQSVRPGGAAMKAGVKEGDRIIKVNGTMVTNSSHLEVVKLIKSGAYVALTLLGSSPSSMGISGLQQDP
# T7: GRIP1_7, Q9Y3R0
# T7 sequence (Q9Y3R0 999-1096, limits assumed, looked up): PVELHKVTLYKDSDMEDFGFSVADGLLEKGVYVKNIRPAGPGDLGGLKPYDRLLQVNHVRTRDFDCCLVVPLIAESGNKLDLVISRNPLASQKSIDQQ
# T8: MPDZ_10, O75970
# T8 sequence (O75970 1624-1722, limits assumed, looked up): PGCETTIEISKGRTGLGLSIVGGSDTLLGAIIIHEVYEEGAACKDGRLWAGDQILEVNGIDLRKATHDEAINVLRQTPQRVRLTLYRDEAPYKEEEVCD
# T9: SNTB1, Q13884
# T9 sequence (Q13884 107-205, limits assumed, looked up): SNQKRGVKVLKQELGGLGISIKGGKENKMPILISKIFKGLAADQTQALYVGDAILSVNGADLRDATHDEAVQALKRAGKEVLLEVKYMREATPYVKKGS
# T10: MPDZ_12, O75970
# T10 sequence (O75970 1857-1958, limits assumed, looked up): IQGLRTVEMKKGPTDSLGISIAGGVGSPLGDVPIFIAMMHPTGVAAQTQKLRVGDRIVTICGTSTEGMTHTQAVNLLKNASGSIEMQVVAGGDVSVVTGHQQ
# T11: SIPA1L2, Q9P2F8
# T11 sequence (Q9P2F8 945-1036, limits assumed, looked up): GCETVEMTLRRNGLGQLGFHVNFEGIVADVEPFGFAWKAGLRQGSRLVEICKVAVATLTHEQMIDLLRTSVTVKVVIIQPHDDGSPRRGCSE
# T12: PCLO, Q9Y6V0
# T12 sequence (Q9Y6V0 4491-4600, limits assumed, looked up): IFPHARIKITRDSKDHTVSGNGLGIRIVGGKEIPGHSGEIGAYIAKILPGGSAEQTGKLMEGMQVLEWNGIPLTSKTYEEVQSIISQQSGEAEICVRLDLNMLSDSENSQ
# T13: NHERF3_4, Q5T2W1
# T13 sequence (Q5T2W1 373-468, limits assumed, looked up): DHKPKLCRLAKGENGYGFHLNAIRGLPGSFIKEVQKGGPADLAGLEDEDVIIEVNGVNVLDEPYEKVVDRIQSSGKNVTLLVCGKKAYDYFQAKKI
# Tests used:
# Experiment in all cases: holdup assay
# Set-up in all cases: key: below the threshold = too weak to quantify, mostly under pKd 3.1 to 4
# Conditions in all cases: plain residues with an end cap or a label only (N-terminal biotin on a linker: ado-ado)
# [1] = target: T1, PARD3B_1, Q8TEW8
# [2] = target: T2, GRIP1_2, Q9Y3R0
# [3] = target: T3, ARHGAP21, Q5T5U3
# [4] = target: Inadl_3, Q8NI35
# Sequence of Inadl_3, Q8NI35 (Q8NI35 359-469): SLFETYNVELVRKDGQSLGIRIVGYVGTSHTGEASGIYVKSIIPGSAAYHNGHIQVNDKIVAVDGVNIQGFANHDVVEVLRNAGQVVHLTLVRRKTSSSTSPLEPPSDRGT
# [5] = target: T4, DFNB31_3, Q9P202
# [6] = target: T5, LNX2_3, Q8N448
# [7] = target: T6, ARHGEF11, O15085
# [8] = target: T7, GRIP1_7, Q9Y3R0
# [9] = target: MAGI2_6, Q86UL8
# Sequence of MAGI2_6, Q86UL8 (Q86UL8 1141-1229): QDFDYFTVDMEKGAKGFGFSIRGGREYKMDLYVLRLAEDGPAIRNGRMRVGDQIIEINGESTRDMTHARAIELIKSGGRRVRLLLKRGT
# [10] = target: IL16_3, Q14005
# Sequence of IL16_3, Q14005 (Q14005 1107-1207): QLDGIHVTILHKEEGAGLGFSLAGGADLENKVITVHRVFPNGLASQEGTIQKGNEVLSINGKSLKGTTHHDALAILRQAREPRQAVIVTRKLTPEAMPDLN
# [11] = target: MAST1, Q9Y2H9
# Sequence of MAST1, Q9Y2H9 (Q9Y2H9 962-1065): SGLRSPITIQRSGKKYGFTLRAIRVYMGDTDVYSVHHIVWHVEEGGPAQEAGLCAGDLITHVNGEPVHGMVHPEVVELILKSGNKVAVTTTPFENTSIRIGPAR
# [12] = target: IL16_4, Q14005
# Sequence of IL16_4, Q14005 (Q14005 1229-1329): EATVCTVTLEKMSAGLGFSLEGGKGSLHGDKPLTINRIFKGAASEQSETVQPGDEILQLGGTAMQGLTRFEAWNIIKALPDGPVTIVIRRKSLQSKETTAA
# [13] = target: T8, MPDZ_10, O75970
# [14] = target: T9, SNTB1, Q13884
# [15] = target: DLG4_2, P78352
# Sequence of DLG4_2, P78352 (P78352 155-259): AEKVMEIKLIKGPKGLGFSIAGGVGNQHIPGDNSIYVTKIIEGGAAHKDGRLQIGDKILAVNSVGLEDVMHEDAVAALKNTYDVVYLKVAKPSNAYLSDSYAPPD
# [16] = target: GRIP2_5, Q9C0E4
# Sequence of GRIP2_5, Q9C0E4 (Q9C0E4 544-642): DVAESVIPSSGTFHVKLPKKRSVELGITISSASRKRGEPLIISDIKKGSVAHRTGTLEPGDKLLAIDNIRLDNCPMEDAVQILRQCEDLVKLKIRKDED
# [17] = target: MAGI2_3, Q86UL8
# Sequence of MAGI2_3, Q86UL8 (Q86UL8 600-682): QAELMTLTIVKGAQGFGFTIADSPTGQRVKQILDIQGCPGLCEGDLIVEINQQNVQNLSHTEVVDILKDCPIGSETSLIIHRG
# [18] = target: T10, MPDZ_12, O75970
# [19] = target: T11, SIPA1L2, Q9P2F8
# [20] = target: FRMPD2_1, Q68DX3
# Sequence of FRMPD2_1, Q68DX3 (Q68DX3 770-861): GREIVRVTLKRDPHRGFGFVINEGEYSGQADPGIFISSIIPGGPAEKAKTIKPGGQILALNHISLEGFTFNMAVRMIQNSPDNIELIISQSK
# [21] = target: LNX1_3, Q8TBB1
# Sequence of LNX1_3, Q8TBB1 (Q8TBB1 500-596): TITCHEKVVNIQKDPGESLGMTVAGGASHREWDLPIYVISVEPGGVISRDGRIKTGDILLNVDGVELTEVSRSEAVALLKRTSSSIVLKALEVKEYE
# [22] = target: T12, PCLO, Q9Y6V0
# [23] = target: T13, NHERF3_4, Q5T2W1
# [24] = target: LAP2, Q96RT1
# Sequence of LAP2, Q96RT1 (Q96RT1 other isoform, or with tags, fused parts or gaps): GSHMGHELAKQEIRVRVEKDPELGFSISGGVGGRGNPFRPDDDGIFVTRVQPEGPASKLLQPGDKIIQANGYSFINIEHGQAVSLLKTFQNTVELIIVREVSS
Binder,pKd [1],pKd [2],pKd [3],pKd [4],pKd [5],pKd [6],pKd [7],pKd [8],pKd [9],pKd [10],pKd [11],pKd [12],pKd [13],pKd [14],pKd [15],pKd [16],pKd [17],pKd [18],pKd [19],pKd [20],further results
"ARGPPRESEV [FAM110D, Q8TAY7]",below the threshold,below the threshold,3.8,below the threshold,below the threshold,below the threshold,4,below the threshold,4.3,below the threshold,4.48,below the threshold,below the threshold,5.12,5.63,below the threshold,3.53,below the threshold,below the threshold,below the threshold,pKd [21]: below the threshold; pKd [22]: below the threshold; pKd [23]: below the threshold; pKd [24]: 4.37
"ARSAAASNYV [CLDN4, O14493]",3.65,below the threshold,3.9,below the threshold,below the threshold,below the threshold,3.8,below the threshold,below the threshold,below the threshold,3.66,below the threshold,below the threshold,below the threshold,below the threshold,below the threshold,below the threshold,below the threshold,3.53,below the threshold,pKd [21]: below the threshold; pKd [22]: below the threshold; pKd [23]: below the threshold; pKd [24]: below the threshold
"NISYRRESAI [KCNJ4, P48050]",below the threshold,below the threshold,below the threshold,below the threshold,below the threshold,below the threshold,below the threshold,below the threshold,below the threshold,below the threshold,4.06,below the threshold,below the threshold,4.03,4.17,below the threshold,below the threshold,below the threshold,below the threshold,below the threshold,pKd [21]: below the threshold; pKd [22]: below the threshold; pKd [23]: below the threshold; pKd [24]: below the threshold
